Values of other authors, collected in paper PMC3204931.

Molecular target: Rac2 (Homo sapiens) (UniProt P15153)

In the case of PLD2 (from UniProt O14939), the Kd is listed as 10 nM.
